Laboratory results published in US20180125988A1, “TARGETED XTEN CONJUGATE COMPOSITIONS AND METHODS OF MAKING SAME” (AMUNIX OPERATING INC., priority 2014, published 2018).

B1: XTEN432-3xMMAE (protein)
chain: SAGSPTAEAAGCGTAEAAGTSESATPESGPGSEPATSGSETPGTSESATPESGPGTSTEPSEGSAPGTSESATPESGPGSPAGSPTSTEEGSPAGSPTSTEEGSPAGSPTSTEEGTSESATPESGPGTSTEPSEGSAPGTSESATPESGPGSEPATSGSETPGTSESATPESGPGSEPATSGSETPGTSESATPESGPGTSTEPSEGSAPTAEAAGCGTAEAAGSPAGSPTSTEEGTSESATPESGPGSEPATSGSETPGTSESATPESGPGSPAGSPTSTEEGSPAGSPTSTEEGTSTEPSEGSAPGTSESATPESGPGTSESATPESGPGTSESATPESGPGSEPATSGSETPGSEPATSGSETPGSPAGSPTSTEEGTSTEPSEGSAPGTSTEPSEGSAPGSEPATSGSETPTAEAAGCGTAEAASASR
B2: XTEN432-3xDM1 (protein)
chain: B1 chain

Target: HER2 (ErbB2, HER2/neu receptor) on HER2 expressing tumor cell lines (human (human tumor cell lines)) (UniProt P04626)
Assay: cell-based or functional assay

Binder	IC50, CellTiter-Glo cytotoxicity, BT474 cells [nM]	IC50, CellTiter-Glo cytotoxicity, HCC1954 cells [nM]	IC50, CellTiter-Glo cytotoxicity, NCI-N87 cells [nM]	IC50, CellTiter-Glo cytotoxicity, SK-BR-3 cells [nM]	IC50, CellTiter-Glo cytotoxicity, SK-OV-3 cells [nM]
B1	> 300	> 300	> 1000	> 300	> 700
B2	> 1000	> 360	> 1000	> 1000	> 700
